This is an account of results in article PMC2206118.

One data set concerns the target FIR1+2 F254L (human, UniProt Q9UHX1-2 101-299, R106G;C112S;C238A;F254L). Kind of data set: fluorescence anisotropy.
The target in data set [1] is T1, FIR1+2 WT (FIR RRM1+2) (human, UniProt Q9UHX1-2 101-299, R106G;C112S;C238A). The experiment in a line: fluorescence anisotropy.
Another data set deals with FIR1+2 Y115L (human, UniProt Q9UHX1-2 101-299, R106G;C112S;C238A;Y115L). Kind of data set: fluorescence anisotropy.
Another data set deals with FIR1+2 F157L (human, UniProt Q9UHX1-2 101-299, R106G;C112S;C238A;F157L). The experiment in a line: fluorescence anisotropy.
Data set [2] addresses T1, FIR1+2 WT (FIR RRM1+2). The experiment in a line: X-ray crystallography.

T1 sequence (Q9UHX1 118-316 R123G/C129S/C255A): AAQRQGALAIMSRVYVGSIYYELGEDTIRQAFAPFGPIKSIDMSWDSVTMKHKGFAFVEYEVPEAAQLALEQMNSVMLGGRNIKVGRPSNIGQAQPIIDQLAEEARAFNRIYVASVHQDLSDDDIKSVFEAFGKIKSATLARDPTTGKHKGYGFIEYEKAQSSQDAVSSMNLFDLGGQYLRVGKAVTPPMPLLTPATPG
Chain of FIR1+2 F254L (Q9UHX1 118-316 R123G/C129S/C255A/F271L): as the sequence (Q9UHX1 118-316 R123G/C129S/C255A) above, with F154L counted along it
Chain of FIR1+2 Y115L (Q9UHX1 118-316 R123G/C129S/Y132L/C255A): as the sequence (Q9UHX1 118-316 R123G/C129S/C255A) above, with Y15L counted along it
Chain of FIR1+2 F157L (Q9UHX1 118-316 R123G/C129S/F174L/C255A): as the sequence (Q9UHX1 118-316 R123G/C129S/C255A) above, with F57L counted along it

With CCTCGGGATTTTTTATTTTGTGTTATT (ssDNA) [H27 (FUSE), fluorescein], the Kd with FIR1+2 F254L was determined as 0.17 ± 0.13 µM; with FIR1+2 WT (FIR RRM1+2) [1], 2.3 ± 1.8 µM; with FIR1+2 Y115L, 81 ± 31 µM; with FIR1+2 F157L it was 140 ± 85 µM.

Take TCGGGATTTTTTATTTTGTGTTATT (ssDNA) [H25 (FUSE)]: the binding result in the data set with FIR1+2 WT (FIR RRM1+2) [2] is “binds”.
